Experimental findings from patent publication US20260116966A1 (KEYMED BIOSCIENCES CHENGDU, published 2026) are described below.

Changes are numbered by the printed parent chain.

The chains are these.
B1: 4B1 × CD3 GPRC5D×CD3 κλ bispecific antibody (bispecific antibody, human IgG4, V domains shown)
VH 1: QAQLVQSGAEVKKPGSSVKVSCKASGYTFTSYNMHWVREAPGQGLEWMGYIYPGNGGTNYNQKFQGRVTLTADTSSSTAYMELSSLRSEDTAVYFCARGYGYRYWYFDVWGQGTLVTVSS
VL 1: EIVLTQSPATLSLSPGERATLSCRASSSVSYMHWYQKKPGQAPRRLIYDTSKLASGIPARFSGSGSGTDYTLTISSLEPEDFAVYYCQQWSNYPPTFGGGTKVEIK
VH 2: EVQLVESGGGLVQPGGSLRLSCAASGFTFNTYAMNWVRKAPGKGLEWVGRIRSKYNNYATYYADSVKDRFTISRDDSKNSLYLQMNSLKTEDTAVYYCVRHGNFGNSYVSWFAYWGQGTLVTVSS
VL 2: QAVVTQEPSLTVSPGGTVTLTCRSSTGAVTTSNYANWVQEKPGQAPRGLIGGTNKRAPWTPARFSGSLLGGKAALTITGAQAEDEAEYYCVLWYSNLWVFGGGTKLTVL
notes: Human IgG4 knob-into-hole Fc with Ser228Pro, Leu235Glu, Pro329Ala
B2: 8D1 × CD3 GPRC5D×CD3 κλ bispecific antibody (bispecific antibody, human IgG4, V domains shown)
VH 1: QVQLVQSGAEVKKPGSSVKVSCKASGYTFTSYYMYWVREAPGQGLEWMGGINPSNGGTKYNEKFQGRVTLTVDKSSSTAYMELSSLRSEDTAVYYCTRGSLRSYYYAMDYWGQGTLVTVSS
VL 1: DIQMTQSPSSLSASVGDRVTITCQASQDISNYLNWYQKKPGKAPKLLIYYTSRLHSGVPSRFSGSGSGTDYTFTISSLQPEDIATYFCQQGYSLPYTFGQGTKLEIK
VH 2: B1 VH 2
VL 2: B1 VL 2
notes: as for B1
B3: 15D1 × CD3 GPRC5D×CD3 κλ bispecific antibody (bispecific antibody, human IgG4, V domains shown)
VH 1: QVQLVQSGAEVKKPGSSVKVSCKASGYTFTNYVMHWVKEKPGQGLEWMGYINPYNDGTKYNEKFQGRVTLTSDKSSNTAYMELSSLRSEDTAVYYCARGGVRRYFDYWGQGTLVTVSS
VL 1: DIQMTQSPSSLSASVGDRVTITCRASQDIGSNLNWLQKEPGKAPKRLIYATSSLDSGVPSRFSGSRSGSDYTLTISSLQPEDFATYYCLQYASFPYTFGQGTKLEIK
VH 2: B1 VH 2
VL 2: B1 VL 2
notes: as for B1
B4: 4D3 × CD3 GPRC5D×CD3 κλ bispecific antibody (bispecific antibody, human IgG4, V domains shown)
VH 1: QVQLVQSGAEVKKPGSSVKVSCKASGYTFTNFPIEWMREAPGQGLEWMGNFHPYNDVTKYNEKFQGRVTLTVDKSSSTVYMELSSLRSEDTAVYYCALITRGYWGQGTLVTVSS
VL 1: DIVMTQSPDSLAVSLGERATINCKSSQSLLYSRNQKNSLAWYQKKPGQPPKLLIYWASTRESGVPDRFSGSGSGTDFTLTISSLQAEDVAVYYCQQYYSYPLTFGQGTKLEIK
VH 2: B1 VH 2
VL 2: B1 VL 2
notes: as for B1
B5: 2F1 × CD3 GPRC5D×CD3 κλ bispecific antibody (bispecific antibody, human IgG4 S228P, kappa, lambda)
heavy 1: QVQLVQSGAEVKKPGSSVKVSCKASGYSFTGYTMNWVREAPGQGLEWMGLINPYNGGTRYNQKFQGRVTLTVDKSSSTAYMELSSLRSEDTAVYYCARWALRYGMDYWGQGTLVTVSSASTKGPSVFPLAPCSRSTSESTAALGCLVKDYFPEPVTVSWNSGALTSGVHTFPAVLQSSGLYSLSSVVTVPSSSLGTKTYTCNVDHKPSNTKVDKRVESKYGPPCPPCPAPEFEGGPSVFLFPPKPKDTLMISRTPEVTCVVVDVSQEDPEVQFNWYVDGVEVHNAKTKPREEQFNSTYRVVSVLTVLHQDWLNGKEYKCKVSNKGLASSIEKTISKAKGQPREPQVCTLPPSQEEMTKNQVSLSCAVKGFYPSDIAVEWESNGQPENNYKTTPPVLDSDGSFFLVSKLTVDKSRWQEGNVFSCSVMHEALHNHYTQKSLSLSLGK
light 1: DIQMTQSPSSLSASVGDRVTITCRASQNVGTNVAWYQKKPGKAPKALIYSASYRNSGVPSRFSGSGSGTDFTLTISSLQPEDFATYFCQQYNSYLLTFGGGTKVEIKRTVAAPSVFIFPPSDEQLKSGTASVVCLLNNFYPREAKVQWKVDNALQSGNSQESVTEQDSKDSTYSLSSTLTLSKADYEKHKVYACEVTHQGLSSPVTKSFNRGEC
heavy 2: EVQLVESGGGLVQPGGSLRLSCAASGFTFNTYAMNWVRKAPGKGLEWVGRIRSKYNNYATYYADSVKDRFTISRDDSKNSLYLQMNSLKTEDTAVYYCVRHGNFGNSYVSWFAYWGQGTLVTVSSASTKGPSVFPLAPCSRSTSESTAALGCLVKDYFPEPVTVSWNSGALTSGVHTFPAVLQSSGLYSLSSVVTVPSSSLGTKTYTCNVDHKPSNTKVDKRVESKYGPPCPPCPAPEFEGGPSVFLFPPKPKDTLMISRTPEVTCVVVDVSQEDPEVQFNWYVDGVEVHNAKTKPREEQFNSTYRVVSVLTVLHQDWLNGKEYKCKVSNKGLASSIEKTISKAKGQPREPQVYTLPPCQEEMTKNQVSLWCLVKGFYPSDIAVEWESNGQPENNYKTTPPVLDSDGSFFLYSKLTVDKSRWQEGNVFSCSVMHEALHNHYTQKSLSLSLGK
light 2: QAVVTQEPSLTVSPGGTVTLTCRSSTGAVTTSNYANWVQEKPGQAPRGLIGGTNKRAPWTPARFSGSLLGGKAALTITGAQAEDEAEYYCVLWYSNLWVFGGGTKLTVLGQPKAAPSVTLFPPSSEELQANKATLVCLISDFYPGAVTVAWKADSSPVKAGVETTTPSKQSNNKYAASSYLSLTPEQWKSHRSYSCQVTHEGSTVEKTVAPTECS
notes: Human IgG4 knob-into-hole, Ser228Pro, Leu235Glu, Pro329Ala; also called parent 2F1×CD3 bispecific antibody
B6: anti-GPRC5D chimeric antibody 2F1 (antibody, V domains shown)
VH: EVLLQQSGPELVKPGTSMKISCKASGYSFTGYTMNWVKQRHGKNLEWIGLINPYNGGTRYNQKFKGRATLTVDKSSSTAYMELLSLTSEDSAVYYCARWALRYGMDYWGQGTSVTVSS
VL: DIVMTQSQKFMSTSVGDRVSVTCKASQNVGTNVAWYQQKPGHSPKALIYSASYRNSGVPDRFTGSGSGTDFTLTISNVQSEDLAEYFCQQYNSYLLTFGGGTKLELK
B7: anti-GPRC5D chimeric antibody 6H1 (antibody, V domains shown)
VH: QAYLQQSGAELVRSGASVKMSCKASGYTFTSYNMHWVKQTPGQGLEWIGYIYPGNGGTNYNQKFKGKATLTADTSSSTAYMQISSLTSEDSAVYFCARGYGYRYWYFDVWGTGTTVTVSS
VL: QIVLTQSPAIMSASPGEKVTMTCSASSSVSYMHWYQQKSGTSPKRWIYDTSKLASGVPARFSGSGSGTSYSLTISSMEAEDAATYYCQQWNSKPPTFGSGTKLEIK
B8: anti-GPRC5D chimeric antibody 2E1 (antibody, V domains shown)
VH: QVQLQQPGAELVKPGASVKLSCKASGYTFTRYWMHWVKQRPGQGLDWIGEFNPSNGRINYNEKFKNKATLTIDKSSSTAYMQLSSLTSEDSAVYYCTRGFAYWGQGTLVTVSA
VL: B7 VL with K18R, S28T, M32I, N91T, S92T, K93N, P95W, S99G
B9: anti-GPRC5D chimeric antibody 4B1 (antibody, V domains shown)
VH: B7 VH with K63N, T112A
VL: B7 VL with A59V, N91S, S92N, K93Y
B10: anti-GPRC5D chimeric antibody 15D1 (antibody, V domains shown)
VH: EVQLQQSGPELGKPGASVKMSCKASGYTFTNYVMHWVKQKPGQGLEWIGYINPYNDGTKYNEKFKGKATLTSDKSSNTAYMELSSLTSEDSAVYYCARGGVRRYFDYWGQGTTLTVSS
VL: DIQMTQSPSSLSASLGERVSLTCRASQDIGSNLNWLQQEPDGTIKRLIYATSSLDSGVPKRFSGSRSGSDYSLTISSLESEDFVDYYCLQYASFPYTFGGGTKLEIK
B11: anti-GPRC5D chimeric antibody 8D1 (antibody, V domains shown)
VH: QVQLQQPGAELVKPGASVKLSCKASGYTFTSYYMYWVKQRPGQGLEWIGGINPSNGGTKYNEKFKSKATLTVDKSSSTAFMQLSSLTSEDSAVYYCTRGSLRSYYYAMDYWGQGTSVTVSS
VL: DIQMTQTTSSLSASLGDRVTISCRASQDISNYLNWYQQKPDGTVKLLIYYTSRLHSGVPSRFSGSGSGTDYSLTISNLEQEDLATYFCQQGYSLPYTFGGGTKLEIK

T1 sequence (Q9NZD1 whole entry): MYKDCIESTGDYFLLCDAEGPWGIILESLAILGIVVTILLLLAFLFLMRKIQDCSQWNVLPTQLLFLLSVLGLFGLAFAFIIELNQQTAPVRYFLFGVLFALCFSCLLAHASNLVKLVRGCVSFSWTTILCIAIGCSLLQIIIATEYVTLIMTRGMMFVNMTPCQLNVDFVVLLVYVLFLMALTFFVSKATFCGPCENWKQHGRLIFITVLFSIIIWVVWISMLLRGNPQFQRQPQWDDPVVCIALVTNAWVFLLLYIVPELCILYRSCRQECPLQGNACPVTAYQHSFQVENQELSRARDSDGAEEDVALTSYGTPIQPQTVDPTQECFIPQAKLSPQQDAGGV

The first experiment has as its target T1, human GPRC5D (human, UniProt Q9NZD1 1-345).
T1 construct: Full length, on stably transfected cells (HEK293-hGPRC5D, CHO-hGPRC5D); Also used here for the endogenous GPRC5D of the GPRC5D+ myeloma lines MM.1R, MM.1S and NCI-H929; also called hGPRC5D; G-protein-coupled receptor family C group 5 member D
In words: flow cytometry, MM.1R cells. For orientation: A flow cytometer gives signals particle by particle.
Description: The cell suspension was adjusted to a concentration of 5×10⁵ cells/mL, and 100 μL per well was added to a 96-well U-shaped plate, centrifuged at 300 g for 5 min. The supernatant was discarded. 100 μL per well of serially diluted antibody was added (initial concentration: 200 nM, 3-fold dilution, 10 gradients), and incubated at 4° C. for 60 min. The primary antibody was washed away, and 50 μL/well Alexa Fluro647 labeled goat anti-human IgG FC (1:300 dilution) was added, and incubated for 20 min. After washing once, 50 μL/well of PI was added, incubated for 5 min, and detected by flow cytometry.
One may read the EC50 as the concentration at which the effect is half-maximal. The low end stands for an effect from little substance, the high end for a need for much substance. Regarding B1, a half-maximal response (EC50) required 3.35 nM and the “Maximum fluorescence intensity (MFI, 200 nM)” value (“Maximum fluorescence intensity” below) is 70900 MFI.

Take B2: the EC50 stood at 3.34 nM and the “Maximum fluorescence intensity” value amounted to 89000 MFI.

Turning to B3, the “Maximum fluorescence intensity” value amounted to 12800 MFI.

B4: a half-maximal effect (EC50) was put at 10.7 nM and the “Maximum fluorescence intensity” value came out at 110000 MFI.

B5: it took 1.51 nM to reach a half-maximal effect (EC50) and the “Maximum fluorescence intensity” value is 94600 MFI.

For the next experiment, the target named is T1, human GPRC5D. Description: cell-based or functional assay.
For the molecule B1, the “TDCC EC50 (pM), MM.1R” value came to 6.95 pM.

Consider B2, for which the “TDCC EC50 (pM), MM.1R” value was 32.9 pM.

On to B3, for which the “TDCC EC50 (pM), MM.1R” value was determined as 96.5 pM.

As to B4, the “TDCC EC50 (pM), MM.1R” value is 6.18 pM.

As to B5, the “TDCC EC50 (pM), MM.1R” value was 0.65 pM.

The target in the next experiment is T2, Cynomolgus GPRC5D (Cynomolgus, UniProt Q9NZD1 1-343 (human entry)).
T2 construct: Full length, on stably transfected cells (HEK293-cyGPRC5D, CHO-cyGPRC5D); also called cyGPRC5D
T2 chain: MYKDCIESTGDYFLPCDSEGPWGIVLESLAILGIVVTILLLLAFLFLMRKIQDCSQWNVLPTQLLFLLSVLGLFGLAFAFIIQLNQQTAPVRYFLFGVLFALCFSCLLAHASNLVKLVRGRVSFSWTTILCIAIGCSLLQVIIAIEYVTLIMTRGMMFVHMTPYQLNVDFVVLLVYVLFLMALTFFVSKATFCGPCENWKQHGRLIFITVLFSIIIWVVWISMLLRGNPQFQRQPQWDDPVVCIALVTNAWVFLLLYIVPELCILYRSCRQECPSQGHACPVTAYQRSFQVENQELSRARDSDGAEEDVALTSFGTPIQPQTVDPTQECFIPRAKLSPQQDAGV
Description: flow cytometry on CHO-cyGPRC5D cells.
Description: (§1) The binding of the antibodies to human and Cynomolgus GPRC5D stably transfected cells was detected by flow cytometry. […] Then, 100 μl/well of the cell suspension was added to a 96-well U-shaped plate, and centrifuged at 300 g for 5 min. The supernatant was discarded. 100 μL per well of serially diluted antibody was added (initial concentration: 200 nM, 3-fold dilution, 12 gradients), and incubated at 4° C. for 45 min. The secondary antibody 50 μL/well of Alexa Fluro647 labeled goat anti-human IgG Fc (1:300 dilution) was added, incubated on ice for 45 min, and detected by flow cytometry.
As to B6, the binding result is on record as “binds”.

For the molecule B7, the binding result is recorded as “binds”.

For B8, the binding result is recorded as “binds”.

B9: the binding result was “binds”.

With B10, the binding result is recorded as “binds”.

Usually EC50 (read off the curve) stands for the concentration at which the effect is half-maximal. The low end stands for an effect from little substance, the high end for a need for much substance. In the case of B11, the “EC50 (read off the curve)” value was roughly 0.4 nM.

For a further experiment, the target named is T1, human GPRC5D. Description: flow cytometry on CHO-hGPRC5D cells.
Description: as §1
Turning to B6, the binding result was “binds”.

For the molecule B7, the binding result is given as “binds”.

Consider B8, for which the binding result was “binds”.

As to B9, the “EC50 (read off the curve)” value is roughly 0.6 nM.

For B10, the “EC50 (read off the curve)” value is roughly 0.1 nM.

Regarding B11, the binding result was “binds”.
